Biological target: human tissue plasminogen activator (TPA) (human, UniProt P00750 36-562)
Assay: cell-based or functional assay

Chain of human tissue plasminogen activator (TPA) (P00750 36-562 limits assumed): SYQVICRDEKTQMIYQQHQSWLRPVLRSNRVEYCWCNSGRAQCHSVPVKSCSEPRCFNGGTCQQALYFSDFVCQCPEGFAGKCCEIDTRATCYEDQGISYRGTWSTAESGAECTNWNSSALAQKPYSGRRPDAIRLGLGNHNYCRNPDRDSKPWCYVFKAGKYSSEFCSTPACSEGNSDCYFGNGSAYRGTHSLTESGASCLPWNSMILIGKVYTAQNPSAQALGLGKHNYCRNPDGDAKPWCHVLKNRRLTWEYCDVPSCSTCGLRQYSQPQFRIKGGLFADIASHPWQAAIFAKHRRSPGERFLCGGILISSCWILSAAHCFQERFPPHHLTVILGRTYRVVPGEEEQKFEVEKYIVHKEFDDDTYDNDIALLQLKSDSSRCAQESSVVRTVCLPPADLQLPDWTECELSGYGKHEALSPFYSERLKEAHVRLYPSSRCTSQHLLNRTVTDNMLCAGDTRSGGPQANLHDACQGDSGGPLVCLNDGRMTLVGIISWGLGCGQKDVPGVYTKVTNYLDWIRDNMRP

- IC50, inhibition of TPA-induced fibrinolysis of human plasma clots (0.5 nM TPA, 2 hrs): 4.53 nM
B1: stable mutant human PAI-1 (four amino acid substitutions, N150H, K154T, Q319L, and M354I) (other, UniProt P05121 24-402, looked up)
chain: VHHPPSYVAHLASDFGVRVFQQVAQASKDRNVVFSPYGVASVLAMLQLTTGGETQQQIQAAMGFKIDDKGMAPALRHLYKELMGPWNKDEISTTDAIFVQRDLKLVQGFMPHFFRLFRSTVKQVDFSEVERARFIINDWVKTHTKGMISHLLGTGAVDQLTRLVLVNALYFNGQWKTPFPDSSTHRRLFHKSDGSTVSVPMMAQTNKFNYTEFTTPDGHYYDILELPYHGDTLSMFIAAPYEKEVPLSALTNILSAQLISHWKGNMTRLPRLLVLPKFSLETEVDLRKPLENLGMTDMFRQFQADFTSLSDQEPLHVALALQKVKIEVNESGTVASSSTAVIVSARMAPEEIIIDRPFLFVVRHNPTGTVLFMGQVMEP

— US20150353647A1 (UNIVERSITY OF TENNESSEE RESEARCH FOUNDATION, published 2015)
